Source: US20250034594A1, “RNA-GUIDED GENOME RECOMBINEERING AT KILOBASE SCALE” (THE BOARD OF TRUSTEES OF THE LELAND STANFORD JUNIOR …, priority 2021, published 2025)

B1: SSAP_30: SEQ ID NO: 199 (protein)
chain: EKPKLIQRFAERFSVDPNKLFDTLKATAFKQRDGSAPTNEQMMALLVVADQYGLNPFTKEIFAFPDKQAGIIPVVGVDGWSRIINQHDQFDGMEFKTSETKVSLDGAKECPEWMECIIYRRDRSHPVKITEYLDEVYRPPFEGNGKNGPYRVDGPWQTHTKRMLRHKSMIQCSRIAFGFVGIFDQDEAERIIEGQATHVVEPSVIPPEQVDDRTRGLVYKLIERAEASNAWNSALEYANEHFQGVELTFAKQEIFNAQQQAAKALTQPLAS
B2: SSAP_10: SEQ ID NO: 179; Bet Escherichia coli (protein, listed as Escherichia coli)
chain: STALATLAGKLAERVGMDSVDPQELITTLRQTAFKGDASDAQFIALLIVANQYGLNPWTKEIYAFPDKQNGIVPVVGVDGWSRIINENQQFDGMDFEQDNESCTCRIYRKDRNHPICVTEWMDECRREPFKTREGREITGPWQSHPKRMLRHKAMIQCARLAFGFAGIYDKDEAERIVENTAYTAERQPERDITPVNNETMQEINTLLIALDKTWDDDLLPLCSQIFRRDIRASSELTQAEAVKALGFLKQKATEQKVAA
B3: SSAP_29: SEQ ID NO: 198 (protein)
chain: STALATLAGKLAERVGMDSVDPQELITTLRQTAFKGDASDAQFIALLIVANQYGLNPWTKEIYAFPDKQNGIVPVVGVDGWSRIINENQQFDGMDFEQDDESCTCRIYRKDRNHPICVTEWMDECRRAPFKTREGREITGPWQSHPKRMLRHKAMIQCARLAFGFAGIYDKDEAERIVENTAYTTERQPERDITPVNEETMSEINALLTSMEKTWDDDLLPLCSQIFRRYIRASSELSQAEAEKVLGFLKQKATEQKVAA
B4: SSAP_64: SEQ ID NO: 233 (protein)
chain: SELQQAAQGQQSNNPVSFIYSHAKDIQNVLTKGTDMDRWLQMARLAVMRDQNLVASAKRDPGSLMQALLDCAEKGHVPGTEDYYLVPRKGGIQGMESWKGIAKRIMRSGRYQSIVNEVVYEGETFEFNPNTMDRPVHNINYMTRTSGKPVMSYAYALDHDGKPSSVAIADPRYIAKVKKNSRGSVWEDWDEQMYRKTAVKMLQDYVDTSSVDRRDVSTVQVDDANVIDVDDTFTAREAGE
B5: SSAP_239: SEQ ID NO: 408; Paenibacillus polymyxa (protein, listed as Paenibacillus polymyxa)
chain: PDKLLVIHDNLNKMLDEKSEAMPTSFNKTRFLQNCMAVLQDTKDIEQCDAKSVARTMLKGAFLGLDFFNKECYAIPYNENIGTKNKPRWIKSLQFQTDYKGEKKLAKKYSTRRVKDIYAKLVRDGDDFREEIESGQPTINFRPLPFNDGIIRGAFAVALFEDGGMIYETMSLKEIEKTRDDYSKQSTGKAWTKSPGEMYKKTVLRRLCKNIELDFDTIEQAQAFEDSSDFDMNKELKPQQQSPLNPNTTIIDAEYEEIKEEPADGPEQE
B6: SSAP_218: SEQ ID NO: 387; Streptococcus lutetiensis (protein, listed as Streptococcus lutetiensis)
chain: ANQLQMSHKDFFNRPAVKNKFSEVVSGKSDQFITSLLSVVNNNKLLSKADNNSILNAAMKAATLNLPIEPSLGSAYIVPFKGQAQFQLGYKGLIELAQRSGQYKSINAGVVYKAQFKSYDPLFETLDLDFNQPQDEVIGYFACFELLNGFRKITYWTREEVYNHGKRFSKSFNNGPWKTDFDAMAKKTLLKSIIGTYGPKSVDMQEAITDDNKTEYEKAEPIDVTPQEENLTDLIGETPQEELPIANPETGEIQEEQTALFNQLGDLTDD
B7: SSAP_98: SEQ ID NO: 267; Pseudomonas fluorescens (protein, listed as Pseudomonas fluorescens)
chain: NSTAETATPFSSQDLEKTQPTKAQSKTGSLASLLASPKMKSQFAAALPKHMTPERMARIVTTEIRKNPELVKCEQHSFLGAVIQCAQLGLEPGNTLGHAYILPYGKQAQLIIGYRGMIDLARRSGQIISISARTVREGDYFEYEFGLDENLIHRPVETTQPGAVTHVYAVARLKDGGRQFEVMSRAQIEEVRVQSKAAKSGPWVTHWEEMAKKTVIRRVFKYLPVSVEIQRAVMLDEKAEAGVCQENECVFDGDFEVITDTEE
B8: SSAP_154: SEQ ID NO: 323; Corynebacterium urealyticum (protein, listed as Corynebacterium urealyticum)
chain: AKNLEARMQQSTNAPARADKPLSLPDQIRQMEDQFRLAMPKGAEATQLVRDALTCLRQTPQLAQCTPASVLGGLMTCAQLGLRPGVLGHAYLIPFNDRRSGNSVAQLVIGYQGLVELAHRSGQIKALIARTVYENDHFDVDYGLEDKLVHKPHMGADKGNPVAYYAVVKFTTGGHAFYVMSHPEMLQYRDKNAKSPKRGPWVDNFEAMAHKTCVRQLAKWMPKSTEFSQALATDESIRLDVTPDAINYPDHPAEGEVIDGEVEQDGGQQ
B9: SSAP_67: SEQ ID NO: 236 (protein)
chain: TSQQLDTTHTINQQVTTFRHTLVQMKNEIAAALPAHMTGDRFLRLILTEVRKNPELAECSTESIFGGILTAAALGLEPGLNGECWLIPRKVGKGPGSRKEATFQVGYKGIIKLFWQNPLASYLDTGVVYANDAWKFRKGLDPILEHTPATGDRGAVRGYYAVVGLTTGARIFDFFTPKQISALRGTAGPNGGISDPEHWMERKTALLQVMKMAPKSTDLASAASVDGTVQTVEAAAQVAAASTGPVNPTTGEVLEAEPVEGGAA
B10: SSAP_23: SEQ ID NO: 192 (protein)
chain: TNNQLATQIKRDITTDPSLLTGADIKKYFDPQNLLTEKQVGQALALCKGRNLNPFANEVYIVAYQNNSGTEFSLIVSKEAFMKRAERCEGYDGFEAGITVMRNGEMIEIEGSLKLPEDILIGGWAVVYRKDRSHRYKVTVDFNEYVKTDRNGNPRSTWKSMPATMIRKTALVQTLREAFPDELGNMYTDIDGGDTFDAIKDVTPQESREDVVARKMAQIDQFNKEQEANHADPEPTQNEDPIQGELLDGELEY
B11: SSAP_104: SEQ ID NO: 273; Salinicoccus albus (protein, listed as Salinicoccus albus)
chain: STNESLKNQVATNQKNEVSNGNKPKTIGDYIDQMAPAMAQALPKHMSVERMTRMATTVIRTTPQLKEADVASLLGAVMQSAQLGLEPGPMGHCYFLPFKNNKKGTTEVTFIIGYKGMIDLARRSGHISTIYAHAVYENDEFEYELGLHADLKHKPSEDERGAFKGAYAVAHFKDGGYQFEYMPKSDIDKRRSRSKAGNSNYSPWATDYEEMAKKTVIRHMWKYLPVSVEMQQAVAHDEGTGKDIKDVTPDEDSFVDMPEYIADVPAEGEGE

Key:
Assay type in all cases: cell-based
[1] = tested on: gene editing with Cas9; assay: Screen of 322 new SSAP proteins, gene editing activity with Cas9 (Table 5); parameters: Cas9 with SSAP activity: scale not given here
Summary of the method: (§1)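 Synthetic SSAP candidates, identified computationally, were tested in editing screens using both Cas9 and dCas9.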

[2] = tested on: gene editing with dCas9; assay: Screen of 322 new SSAP proteins, gene editing activity with dCas9 (Table 5); parameters: dCas9 with SSAP activity: scale not given here
Summary of the method: as §1

[3] = tested on: gene editing with Cas9 and dCas9; assay: Screen of 322 new SSAP proteins, activity across all experiments (Cas9 and dCas9, Table 5); parameters: scale not given here
Summary of the method: as §1

[4] = tested on: endogenous genome targets (ACTB, HSP90AA1); assay: Arrayed SSAP library screening, mKate knock-in assay (editing efficiency); settings: average of HSP90 and ACTB, 3 days after transfection; for Editing Efficiency (Normalized, Average, two targets): fold over negative control (Flag_HA); for Editing Efficiency (Absolute, Average, two targets): percent of mKate knock-in
Description: Arrayed SSAP library screening on endogenous genome targets (ACTB. HSP90AA1) using mKate knock-in assay.
SSAP-encoding plasmids were purified and quantified.
(§2) Each SSAP encoding plasmid was tested in duplicate, including a negative control (same plasmid encoding Flag_HA which is not expected to promote gene editing). Transfections were in 96-well plates and transfection efficiency was estimated to be 50%.
(§3) Three days after transfection, mKate positive cells and cell viability were quantified across all replicates, along with positive (original RecT SSAP) and negative (Flag-HA control protein) controls. […] At the same time, the cell viability was measured by live cell counts via flow cytometry, to help quantify the fitness effect of SSAP on mammalian cells.
(§4) SSAP proteins are identified by Uniparc deposit number and SEQ ID NO. Alignment numbers correspond to SSAPs in FIGS. 58, 59, and 60.

[5] = tested on: mammalian cells; assay: Arrayed SSAP library screening, cell viability by live cell counts via flow cytometry
Description: as §2, §3, §4

Row | Molecule | Cas9 with SSAP activity [1] | Cas9 with SSAP activity (normalized) [1] | dCas9 with SSAP activity [2] | dCas9 with SSAP activity (normalized) [2] | Activity across all experiments [3] | Editing Efficiency (Normalized, Average, two targets) [4] | Editing Efficiency (Absolute, Average, two targets) [4] | Cell Viability (Average, two targets) [5]
1 | B1 | 0.813 | 0.564 | −2.667 | −0.795 | −0.927 | – | – | –
2 | B2 | – | – | – | – | – | 5.75 | 14.25 | 1.237
3 | B3 | – | – | – | – | – | 5.204 | 12.9225 | 1.131
4 | B4 | 1.588 | 1.090 | −2.755 | −1.023 | −0.583 | – | – | –
5 | B5 | 1.340 | 0.516 | 2.282 | 1.278 | 1.811 | – | – | –
6 | B6 | −6.903 | −1.680 | −2.770 | −0.443 | −4.836 | – | – | –
7 | B7 | 0.754 | 0.207 | −2.696 | −0.444 | −0.971 | – | – | –
8 | B8 | −0.806 | −0.733 | −2.710 | −0.380 | −1.758 | – | – | –
9 | B9 | – | – | – | – | – | 4.616 | 11.4625 | 1.088
10 | B10 | 0.839 | 0.359 | −2.835 | −0.450 | −0.998 | – | – | –
11 | B11 | −4.226 | −0.744 | −2.685 | −0.421 | −3.455 | – | – | –
